Here are results for 8 molecules from PMC3035456.

Data set [1] has as its target T1, TIAR12 (UniProt Q01085 1-181).
T1 sequence: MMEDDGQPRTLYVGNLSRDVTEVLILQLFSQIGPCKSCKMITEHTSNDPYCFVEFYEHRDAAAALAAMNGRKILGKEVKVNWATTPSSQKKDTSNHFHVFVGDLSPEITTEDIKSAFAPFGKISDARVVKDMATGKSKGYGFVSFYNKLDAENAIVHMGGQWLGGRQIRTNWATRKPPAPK
The data set is described as follows: size exclusion chromatography. (SEC sorts molecules by how far they enter the pores of the column.)

In data set [2] the target is HuR12 (UniProt Q15717 18-184). The data set is described as follows: SPR. (In general: In SPR one partner is held on a chip, and binding of the other changes the refractive index at the surface.)
The target in data set [3] is T1, TIAR12. The data set is described as follows: SPR.
Data set [4] addresses T1, TIAR12. Kind of data set: SPR. The source holds these as a separate data set.
Data set [5] has as its target HuR123 (UniProt Q15717 1-306). The data set is described as follows: SPR.
The target of data set [6] is T2, TIAR123 (UniProt Q01085 1-283).
T2 sequence: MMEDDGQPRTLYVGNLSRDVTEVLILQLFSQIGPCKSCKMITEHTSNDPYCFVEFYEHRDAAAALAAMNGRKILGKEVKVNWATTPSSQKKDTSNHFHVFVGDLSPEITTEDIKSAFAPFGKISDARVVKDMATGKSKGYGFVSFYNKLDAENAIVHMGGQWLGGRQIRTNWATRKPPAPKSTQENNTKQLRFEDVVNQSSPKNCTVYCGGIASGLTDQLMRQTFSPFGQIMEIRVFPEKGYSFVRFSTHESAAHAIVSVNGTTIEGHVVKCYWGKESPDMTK
Kind of data set: SPR.

Where two headings read alike, the source gives them in different places.

As usually defined, the Kd is the constant that tells how readily two partners part at equilibrium. A low value points to a tighter complex.

Sequence of HuR12 (Q15717 18-184): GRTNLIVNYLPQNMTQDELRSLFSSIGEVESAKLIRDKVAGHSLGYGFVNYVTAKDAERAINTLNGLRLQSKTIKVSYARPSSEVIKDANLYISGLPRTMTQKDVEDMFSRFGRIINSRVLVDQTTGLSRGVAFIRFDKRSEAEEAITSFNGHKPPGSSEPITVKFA
Sequence of HuR123 (Q15717 1-306): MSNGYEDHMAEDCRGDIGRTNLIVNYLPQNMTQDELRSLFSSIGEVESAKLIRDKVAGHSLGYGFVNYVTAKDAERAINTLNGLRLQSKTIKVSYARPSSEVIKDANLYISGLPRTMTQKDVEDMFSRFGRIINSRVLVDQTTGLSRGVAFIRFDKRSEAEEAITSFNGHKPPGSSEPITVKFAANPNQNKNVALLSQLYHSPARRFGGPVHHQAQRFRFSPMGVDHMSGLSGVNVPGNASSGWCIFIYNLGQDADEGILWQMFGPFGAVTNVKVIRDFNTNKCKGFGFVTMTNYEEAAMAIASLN

For the molecule UUUUUUUUUUUUU (ssRNA) [U-rich RNA 13-mer (solution)], in data set [1], the binding result is on record as “binds”. UUUUUUUUUUUUUUUUU (ssRNA) [U-rich RNA 17-mer]: the affinity in data set [2], expressed as Kd, was 40 ± 24 nM.

For the molecule TTTTTTTTTTTTTTTTTTTT (ssDNA) [T-rich DNA 20-mer], the dissociation constant (Kd) in data set [3] is 3.81 ± 0.74 nM; in data set [2], 2640 ± 82.3 nM. Molecule UUUUUUUUUUUUU (ssRNA) [U-rich RNA 13-mer] yielded a dissociation constant (Kd) in data set [2] of 195 ± 6.3 nM. In the case of UUUUUUUUUUUUUUUUUUUU (ssDNA, all deoxyuridine (2'-deoxy)) [U-rich DNA 20-mer], the dissociation constant (Kd) in data set [2] was 20600 ± 1570 nM; in data set [4] it was 21.7 ± 0.38 nM.

For the molecule GGGGGGUAUUUAUUAUUUAUUUAGGGGG (ssRNA) [AU-rich RNA 28-mer (TNF-alpha ARE)], the equilibrium dissociation constant (Kd) in data set [2] was 506 ± 13.1 nM; in data set [4], 42.5 ± 0.63 nM; in data set [5], 0.2 ± 0.007 nM; in data set [6], 14.1 ± 0.22 nM.

GGGGGGUUUUUUUUUUUUUUUUUGGGGG (ssRNA) [U-rich RNA 28-mer]: the dissociation constant (Kd) in data set [5] was 0.05 ± 0.001 nM. On to UUUUUUUU (ssRNA) [U-rich RNA 8-mer], for which, in data set [2], the Kd stood at 4700 ± 116 nM.
